Test results taken from patent US20240327526A1 (Amgen, published 2024).

T1: activin type IIB receptor (ActRIIB) on C2C12/pMARE-luc cells co-transfected with ALK4 (Homo sapiens (Human), UniProt Q13705 19-134)
T1 chain: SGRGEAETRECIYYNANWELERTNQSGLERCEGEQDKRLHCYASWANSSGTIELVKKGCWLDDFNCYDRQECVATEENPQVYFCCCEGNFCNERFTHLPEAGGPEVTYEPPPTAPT


Columns and labels:
[1] = target: T1, activin type IIB receptor (ActRIIB) on …; assay: cell-based or functional assay
[2] = target: activin type IIA receptor (ActRIIA) on C2C12/pMARE-luc cells co-transfected with ALK4 (Homo sapiens (Human), UniProt P27037 20-513); assay: cell-based or functional assay
ActRIIA-huFc [3] = target: T2, ActRIIA-huFc (human); assay: binding affinity, method not stated
T2 construct: Used biotinylated in the ELISA screens; also called huActRIIA-huFc; biotin-ActRIIA-huFc

ActRIIA-huFc [4] = target: T2, ActRIIA-huFc; assay: BIAcore
ActRIIA-huFc [5] = target: T2, ActRIIA-huFc; assay: KinExA

T2 sequence (chain, as listed by the source limits assumed): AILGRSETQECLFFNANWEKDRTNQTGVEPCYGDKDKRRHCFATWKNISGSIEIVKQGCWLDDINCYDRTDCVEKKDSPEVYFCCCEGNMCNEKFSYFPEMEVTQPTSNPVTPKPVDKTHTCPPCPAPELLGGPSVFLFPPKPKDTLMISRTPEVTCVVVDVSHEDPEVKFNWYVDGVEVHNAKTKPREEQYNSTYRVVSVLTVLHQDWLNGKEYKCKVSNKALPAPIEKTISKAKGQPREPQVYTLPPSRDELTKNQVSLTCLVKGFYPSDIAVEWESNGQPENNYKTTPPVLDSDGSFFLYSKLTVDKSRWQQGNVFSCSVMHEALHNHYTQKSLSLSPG
Sequence of activin type IIA receptor (ActRIIA) on C2C12/pMARE-luc cells co-transfected with ALK4 (P27037 20-513): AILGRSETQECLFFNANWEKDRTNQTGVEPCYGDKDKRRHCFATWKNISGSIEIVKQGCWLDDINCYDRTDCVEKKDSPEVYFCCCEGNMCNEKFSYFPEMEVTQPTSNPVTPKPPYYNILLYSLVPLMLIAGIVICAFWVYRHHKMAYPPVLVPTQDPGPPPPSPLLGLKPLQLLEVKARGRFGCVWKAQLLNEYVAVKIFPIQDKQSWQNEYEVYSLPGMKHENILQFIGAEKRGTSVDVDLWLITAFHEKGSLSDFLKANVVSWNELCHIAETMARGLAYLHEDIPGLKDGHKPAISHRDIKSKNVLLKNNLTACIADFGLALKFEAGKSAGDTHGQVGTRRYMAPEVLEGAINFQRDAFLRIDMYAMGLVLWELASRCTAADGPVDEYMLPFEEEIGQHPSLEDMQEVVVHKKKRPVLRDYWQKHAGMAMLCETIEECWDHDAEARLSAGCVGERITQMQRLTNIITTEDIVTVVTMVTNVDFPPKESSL

| Cell-Based IC50, ActRIIB Signaling (luciferase reporter, C2C12/pMARE-luc cells with ActRIIB + ALK4, 4 nM myostatin or activin) [1] [nM] | Cell-Based IC50, ActRIIA Signaling (luciferase reporter, C2C12/pMARE-luc cells with ActRIIA + ALK4, 4 nM myostatin or activin) [2] [nM] | Kd (ActRIIA-huFc [3]) [pM] | Kd (ActRIIA-huFc [4]) [pM] | Kd (ActRIIA-huFc [5]) [pM] | fold improvement of affinity over the parental molecule R31-1 (ActRIIA-huFc [5]) [fold] | Binder |
| --- | --- | --- | --- | --- | --- | --- |
| 8 | 2 | ~1000 | 4000 | – | – | Anti-ActRIIB human IgG R31-1 (antibody, V domains shown, Human IgG2/kappa from Xenomouse immunization with ActRIIB-huFc; also called parental 31-1; parental molecule R31-1) VH: EVQLLESGGGLVQPGGSLRLSCAASGFTFRNYAMSWVRQAPGKGLEWVSGISVTGGSTYYTDSVKGRFTVSRDNSRNTLYLQMNSLRAEDTAVYYCAKVYYSSFFDYWGQGTLVTVSS VL: QTVVTQEPSFSVSPGGTVTLTCGFNSGSVSTSYYPSWYQQTPGQAPRTLIYNTNTRSSGVPDRFSGSILGNKAALTITGAQADDESDYYCVLYMGSGIWVFGGGTKLTVLG |
| – | – | – | – | < 1 | ≥ 1000 | M37 (antibody, human IgG2, lambda, V domains shown) VH: EVQLLESGGGLVQPGGSLRLSCAASGFTFRNYAMAWVRQAPGKGLEWVSGISVTGGSTFYTDSVKGRFTVSRDNSRNTLYLQMNSLRAEDTAVYYCAKVYYTSFFDYWGQGTLVTVSS VL: QTVVTQEPSFSVSPGGTVTLTCGFNSGSVSTSYYPSWYQQTPGQAPRTLIYNTNTRSSGVPDRFSGSILGNKAALTITGAQADDESDYYCVLWMGSGIWVFGGGTKLTVLG |
| 2 | – | – | 1 | < 1 | ≥ 1000 | M43 (antibody, human IgG2, lambda, V domains shown, fully human) VH: EVQLLESGGGLVQPGGSLRLSCAASGFTFRNSAMSWVRQAPGKGLEWVSGISVTGGSTFYTDSVKGRFTVSRDNSRNTLYLQMNSLRAEDTAVYYCAKVYYYSFFDYWGQGTLVTVSS VL: QTVVTQEPSFSVSPGGTVTLTCGFNSGSVSTSYWPSWYQQTPGQAPRTLIYNTNTRSSGVPDRFSGSILGNKAALTITGAQADDESDYYCVLWMGSGIWVFGGGTKLTVLG |
| – | – | – | – | < 1 | ≥ 1000 | M25 (antibody, human IgG2, lambda, V domains shown) VH: EVQLLESGGGLVQPGGSLRLSCAASGFTFRNSAMSWVRQAPGKGLEWVSAISVTGGSTYYTDSVKGRFTVSRDNSRNTLYLQMNSLRAEDTAVYYCAKVYYYSFFDYWGQGTLVTVSS VL: QTVVTQEPSFSVSPGGTVTLTCGFNSGSVSTSYYPSWYQQTPGQAPRTLIYNTNTRSSGVPDRFSGSILGNKAALTITGAQADDESDYYCVLYMGSGIHVFGGGTKLTVLG |
